Results as given in PMC10175506, “Cryo-electron microscopy of the f1 filamentous phage reveals insights into viral infection and assembly” (Nature Communications, 2023).

B1: pVII, minor capsid protein of f1 phage (natural protein, UniProt P69534 1-33, looked up)
chain: MEQVADFDTIYQAMIQISVVLCFALGIIAGGQR
notes: the five N-terminal residues (MEQVA) are not visible in the map; Arg 33 is the C-terminal residue; Five copies stand in the round tip of the nanorod; source: expressed from helper plasmid pHP1YM in double-transformed host cells, assembled into f1-derived nanorods; nanorods purified from the supernatant (PEG, CsCl density gradient, anion exchange)

What was measured:
[1] = target: the molecule itself; experiment: cryo-EM structure; purified f1-derived nanorods (529-nt ssDNA) plunge-frozen; map of the round tip, 5-fold symmetry applied, 2.8 Å
[2] = target: B1; experiment: as above; conditions: both partners purified
[3] = target: the molecule itself; experiment: cryo-EM structure; purified f1-derived nanorods (529-nt ssDNA) plunge-frozen; map of the pointy tip, 5-fold symmetry applied, 2.9 Å

**Q.** With B1 as the binder, how does the “stoichiometry N” value [1] read?
**A.** The value was 5.

B2: pIX, minor capsid protein of f1 phage (natural protein, UniProt P69537 1-32, looked up)
chain: MSVLVYSFASFVLGWCLRSGITYFTRLMETSS
notes: Five copies stand in the round tip of the nanorod; source: expressed from helper plasmid pHP1YM in double-transformed host cells, assembled into f1-derived nanorods; nanorods purified from the supernatant (PEG, CsCl density gradient, anion exchange)
**Q.** Does B2 bind [2]?
**A.** Result: binds

B3: pVI, minor capsid protein of f1 phage (natural protein, UniProt P69531 1-112, looked up)
chain: MPVLLGIPLLLRFLGFLLVTLFGYLLTFLKKGFGKIAIAISLFLALIIGLNSILVGYLSDISAQLPSDFVQGVQLILPSNALPCFYVILSVKAAIFIFDVKQKIVSYLDWDK
notes: density observed for the entire protein; Five copies stand in the pointy tip of the nanorod; source: expressed from helper plasmid pHP1YM in double-transformed host cells, assembled into f1-derived nanorods; nanorods purified from the supernatant (PEG, CsCl density gradient, anion exchange)
**Q.** B3 was tested. Which “stoichiometry N” value [3] did it give?
**A.** The value was 5.
